Consider ten molecules from paper PMC5345052, “Auto-phosphorylation Represses Protein Kinase R Activity” (Scientific Reports, 2017).

Common to all, as to experiment: split Venus fluorescence complementation in HEK293 cells
Assay [1] deals with truncated PKR kinase domain with N-terminal split Venus V2 tag (UniProt P19525). The conditions noted are these: 20 ng/well of each plasmid construct, read off a plot.
Assay [2] deals with truncated phosphor-transfer mutant PKR kinase domain (KD-K296R) with N-terminal split Venus V2 tag (UniProt P19525). The conditions noted are these: 20 ng/well of each plasmid construct; partner kinase domain carries K296R; n = 5; parent: est. 3.0; read off a plot.
Assay [3] addresses PKR RNA-binding domain with C-terminal split Venus V1 tag. The conditions noted are these: 20 ng/well of each plasmid construct; n = 5; parent: est. 2.9; read off a plot.
Assay [4] addresses T1, truncated phosphor-transfer mutant PKR kinase domain (KD-K296R) with N-terminal split Venus V2 tag, P19525.
T1 chain: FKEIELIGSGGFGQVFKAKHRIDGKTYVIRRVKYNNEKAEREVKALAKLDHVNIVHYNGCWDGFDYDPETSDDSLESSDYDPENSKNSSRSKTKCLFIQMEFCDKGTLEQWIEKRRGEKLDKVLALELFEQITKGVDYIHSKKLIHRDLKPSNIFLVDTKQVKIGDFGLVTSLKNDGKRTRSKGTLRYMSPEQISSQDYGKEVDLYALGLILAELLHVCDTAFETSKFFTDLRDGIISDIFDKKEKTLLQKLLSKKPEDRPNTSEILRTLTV
The note with it: chain shown with the change; 20 ng/well of full-length PKR and 30 ng/well of the truncated KD; partner kinase domain carries K296R; n = 7; parent: est. 4.2; read off a plot.

The mark [5] stands for this setting: 5 μM 2-aminopurine (2AP), n = 6, parent: est. 3.8.

As to “PKR RNA-binding domain with C-terminal split Venus V1 tag S33A; T42A”, the response in assay [1] (setting [5]) is 4.3; in assay [1] (n = 7, parent: est. 2.9), 2.9; in assay [2], 3.5.

“PKR RNA-binding domain with C-terminal split Venus V1 tag S33E; T42E”: the response in assay [1] (setting [5]) stood at 3.1; in assay [1] (n = 7, parent: est. 2.9), 2.5; in assay [2] it was 2.6.

Take “truncated PKR kinase domain with N-terminal split Venus V2 tag (from UniProt P19525) K296R”: the response in assay [3] amounted to 3.

B1: full-length PKR with N-terminal split Venus V1 tag, P19525 H37R; S33A; T42A (protein)
chain: MAGDLSAGFFMEELNTYRQKQGVVLKYQELPNAGPPRDRRFAFQVIIDGREFPEGEGRSKKEAKNAAAKLAVEILNKEKKAVSPLLLTTTNSSEGLSMGNYIGLINRIAQKKRLTVNYEQCASGVHGPEGFHYKCKMGQKEYSIGTGSTKQEAKQLAAKLAYLQILSEETSVKSDYLSSGSFATTCESQSNSLVTSTLASESSSEGDFSADTSEINSNSDSLNSSSLLMNGLRNNQRKAKRSLAPRFDLPDMKETKYTVDKRFGMDFKEIELIGSGGFGQVFKAKHRIDGKTYVIKRVKYNNEKAEREVKALAKLDHVNIVHYNGCWDGFDYDPETSDDSLESSDYDPENSKNSSRSKTKCLFIQMEFCDKGTLEQWIEKRRGEKLDKVLALELFEQITKGVDYIHSKKLIHRDLKPSNIFLVDTKQVKIGDFGLVTSLKNDGKRTRSKGTLRYMSPEQISSQDYGKEVDLYALGLILAELLHVCDTAFETSKFFTDLRDGIISDIFDKKEKTLLQKLLSKKPEDRPNTSEILRTLTVWKKSPEKNERHTC
On to B1, for which the response in assay [4] amounted to 21.

B2: full-length PKR with N-terminal split Venus V1 tag, P19525 S33E; T42E; R262D (protein)
chain: MAGDLSAGFFMEELNTYRQKQGVVLKYQELPNEGPPHDRRFEFQVIIDGREFPEGEGRSKKEAKNAAAKLAVEILNKEKKAVSPLLLTTTNSSEGLSMGNYIGLINRIAQKKRLTVNYEQCASGVHGPEGFHYKCKMGQKEYSIGTGSTKQEAKQLAAKLAYLQILSEETSVKSDYLSSGSFATTCESQSNSLVTSTLASESSSEGDFSADTSEINSNSDSLNSSSLLMNGLRNNQRKAKRSLAPRFDLPDMKETKYTVDKDFGMDFKEIELIGSGGFGQVFKAKHRIDGKTYVIKRVKYNNEKAEREVKALAKLDHVNIVHYNGCWDGFDYDPETSDDSLESSDYDPENSKNSSRSKTKCLFIQMEFCDKGTLEQWIEKRRGEKLDKVLALELFEQITKGVDYIHSKKLIHRDLKPSNIFLVDTKQVKIGDFGLVTSLKNDGKRTRSKGTLRYMSPEQISSQDYGKEVDLYALGLILAELLHVCDTAFETSKFFTDLRDGIISDIFDKKEKTLLQKLLSKKPEDRPNTSEILRTLTVWKKSPEKNERHTC
In the case of B2, the response in assay [4] turned out to be 12.

B3: full-length PKR with N-terminal split Venus V1 tag, P19525 R262D (protein)
chain: MAGDLSAGFFMEELNTYRQKQGVVLKYQELPNSGPPHDRRFTFQVIIDGREFPEGEGRSKKEAKNAAAKLAVEILNKEKKAVSPLLLTTTNSSEGLSMGNYIGLINRIAQKKRLTVNYEQCASGVHGPEGFHYKCKMGQKEYSIGTGSTKQEAKQLAAKLAYLQILSEETSVKSDYLSSGSFATTCESQSNSLVTSTLASESSSEGDFSADTSEINSNSDSLNSSSLLMNGLRNNQRKAKRSLAPRFDLPDMKETKYTVDKDFGMDFKEIELIGSGGFGQVFKAKHRIDGKTYVIKRVKYNNEKAEREVKALAKLDHVNIVHYNGCWDGFDYDPETSDDSLESSDYDPENSKNSSRSKTKCLFIQMEFCDKGTLEQWIEKRRGEKLDKVLALELFEQITKGVDYIHSKKLIHRDLKPSNIFLVDTKQVKIGDFGLVTSLKNDGKRTRSKGTLRYMSPEQISSQDYGKEVDLYALGLILAELLHVCDTAFETSKFFTDLRDGIISDIFDKKEKTLLQKLLSKKPEDRPNTSEILRTLTVWKKSPEKNERHTC
Consider B3, for which, in assay [4], the response is 13.

B4: full-length PKR with N-terminal split Venus V1 tag, P19525 H37R; S33E; T42E (protein)
chain: MAGDLSAGFFMEELNTYRQKQGVVLKYQELPNEGPPRDRRFEFQVIIDGREFPEGEGRSKKEAKNAAAKLAVEILNKEKKAVSPLLLTTTNSSEGLSMGNYIGLINRIAQKKRLTVNYEQCASGVHGPEGFHYKCKMGQKEYSIGTGSTKQEAKQLAAKLAYLQILSEETSVKSDYLSSGSFATTCESQSNSLVTSTLASESSSEGDFSADTSEINSNSDSLNSSSLLMNGLRNNQRKAKRSLAPRFDLPDMKETKYTVDKRFGMDFKEIELIGSGGFGQVFKAKHRIDGKTYVIKRVKYNNEKAEREVKALAKLDHVNIVHYNGCWDGFDYDPETSDDSLESSDYDPENSKNSSRSKTKCLFIQMEFCDKGTLEQWIEKRRGEKLDKVLALELFEQITKGVDYIHSKKLIHRDLKPSNIFLVDTKQVKIGDFGLVTSLKNDGKRTRSKGTLRYMSPEQISSQDYGKEVDLYALGLILAELLHVCDTAFETSKFFTDLRDGIISDIFDKKEKTLLQKLLSKKPEDRPNTSEILRTLTVWKKSPEKNERHTC
With B4, in assay [4], the response came to 3.1.

B5: full-length PKR with N-terminal split Venus V1 tag, P19525 K261D (protein)
chain: MAGDLSAGFFMEELNTYRQKQGVVLKYQELPNSGPPHDRRFTFQVIIDGREFPEGEGRSKKEAKNAAAKLAVEILNKEKKAVSPLLLTTTNSSEGLSMGNYIGLINRIAQKKRLTVNYEQCASGVHGPEGFHYKCKMGQKEYSIGTGSTKQEAKQLAAKLAYLQILSEETSVKSDYLSSGSFATTCESQSNSLVTSTLASESSSEGDFSADTSEINSNSDSLNSSSLLMNGLRNNQRKAKRSLAPRFDLPDMKETKYTVDDRFGMDFKEIELIGSGGFGQVFKAKHRIDGKTYVIKRVKYNNEKAEREVKALAKLDHVNIVHYNGCWDGFDYDPETSDDSLESSDYDPENSKNSSRSKTKCLFIQMEFCDKGTLEQWIEKRRGEKLDKVLALELFEQITKGVDYIHSKKLIHRDLKPSNIFLVDTKQVKIGDFGLVTSLKNDGKRTRSKGTLRYMSPEQISSQDYGKEVDLYALGLILAELLHVCDTAFETSKFFTDLRDGIISDIFDKKEKTLLQKLLSKKPEDRPNTSEILRTLTVWKKSPEKNERHTC
On to B5, for which the response in assay [4] amounted to 3.4.

B6: full-length PKR with N-terminal split Venus V1 tag, P19525 S33E; T42E; K261D (protein)
chain: MAGDLSAGFFMEELNTYRQKQGVVLKYQELPNEGPPHDRRFEFQVIIDGREFPEGEGRSKKEAKNAAAKLAVEILNKEKKAVSPLLLTTTNSSEGLSMGNYIGLINRIAQKKRLTVNYEQCASGVHGPEGFHYKCKMGQKEYSIGTGSTKQEAKQLAAKLAYLQILSEETSVKSDYLSSGSFATTCESQSNSLVTSTLASESSSEGDFSADTSEINSNSDSLNSSSLLMNGLRNNQRKAKRSLAPRFDLPDMKETKYTVDDRFGMDFKEIELIGSGGFGQVFKAKHRIDGKTYVIKRVKYNNEKAEREVKALAKLDHVNIVHYNGCWDGFDYDPETSDDSLESSDYDPENSKNSSRSKTKCLFIQMEFCDKGTLEQWIEKRRGEKLDKVLALELFEQITKGVDYIHSKKLIHRDLKPSNIFLVDTKQVKIGDFGLVTSLKNDGKRTRSKGTLRYMSPEQISSQDYGKEVDLYALGLILAELLHVCDTAFETSKFFTDLRDGIISDIFDKKEKTLLQKLLSKKPEDRPNTSEILRTLTVWKKSPEKNERHTC
As for B6, in assay [4], the response was determined as 3.6.

B7: full-length PKR with N-terminal split Venus V1 tag, P19525 H37R (protein)
chain: MAGDLSAGFFMEELNTYRQKQGVVLKYQELPNSGPPRDRRFTFQVIIDGREFPEGEGRSKKEAKNAAAKLAVEILNKEKKAVSPLLLTTTNSSEGLSMGNYIGLINRIAQKKRLTVNYEQCASGVHGPEGFHYKCKMGQKEYSIGTGSTKQEAKQLAAKLAYLQILSEETSVKSDYLSSGSFATTCESQSNSLVTSTLASESSSEGDFSADTSEINSNSDSLNSSSLLMNGLRNNQRKAKRSLAPRFDLPDMKETKYTVDKRFGMDFKEIELIGSGGFGQVFKAKHRIDGKTYVIKRVKYNNEKAEREVKALAKLDHVNIVHYNGCWDGFDYDPETSDDSLESSDYDPENSKNSSRSKTKCLFIQMEFCDKGTLEQWIEKRRGEKLDKVLALELFEQITKGVDYIHSKKLIHRDLKPSNIFLVDTKQVKIGDFGLVTSLKNDGKRTRSKGTLRYMSPEQISSQDYGKEVDLYALGLILAELLHVCDTAFETSKFFTDLRDGIISDIFDKKEKTLLQKLLSKKPEDRPNTSEILRTLTVWKKSPEKNERHTC
Turning to B7, in assay [4], the response is 3.8.
